Experimental data published in patent publication US20260327294 (published 2026).
Substitutions are numbered along the chain they refer to.

B1: F6-27 (antibody, V domains shown)
VH: QEQLMESGGDVVRPGTSLTLSCKASGFAFRSHALHWVRQAPGKGLEWVSVISYDGGHTNSADSLEGRFTVSRDNSKNILYLQMNSLRTEDTAVYFCARSEGSYRSWPGYFYYMDVWGNGTTVTVSS
VL: QSALTQPASVSGSPGQSITISCIGTSSDVGGYYYVSWYQQHPGRAPKLIIFDVTDRPSGVSSRFSGSQSGNTASLTISGLQPEDEADYYCNSYSSSTIPYVFGSGTKVTVL
B2: F6-63 (antibody, V domains shown)
VH: QVQVVESGGGVVEPGGSLSLSCAASGFSFKMHAMHWVRQAPGKGLEWVAFIPYDGSSQYYADSVKGRFTIYRDNFKNTLYLQMNSLRVEDTSLYYCARGGEEGAWSWIGYNSYMDVWGRGTAVTVSS
VL: QSALTQPASVSGSPGQSITISCSGTSSDVGGYDYVCWYQKHPGESPRLIIYDVSRRPSGVSNRFSGSKSGNTASLTISGLQAEDEADYSCSSYTSSNTLIFGGGTKLTVL
B3: F6-88 (antibody, V domains shown)
VH: QVQLVQSGAEVKKPGASVRVSCGASGNSFTRHGFSWVRQAPGQGLEWIGLISAHKSNTIYAQKFQGRVTVTTDTSTSTAYMELRSLRSDDTAVYYCVRDVTVVTDVGSGYDFPMDVWGQGTTVTVSS
VL: QSVLTQSPSASGTPGQRVTISCSGSNSNIGGDYVHWYQQVPGTAPRLLIYNTNQRPSGVPDRFSGSKSGTSGSLAISGLRSEDEADYYCATWDDSLNGWVFGGGTKLTVL
B4: F6-65 (antibody, V domains shown)
VH: QVQLVESGGGLVQPGDSLRLSCAASGFTFKSYGLHWVRQAPGKGLEWVAGLSYDGFSGYYADSVKGRFTVSRDNSKNTLYLHINSLRSEDTSIYYCARGGDGEIFSWIGYFYYMDVWGKGTTVTVFS
VL: QSALTQPASVSGSPGQSITISCSGTTNDVGGYDYVSWYQHHPGKAPKLLIYDVSQRPSGVSSRFSGSKSGNTASLTISGLQTDDEAHYYCSSYTITNTLKFGGGTTLTVL
B5: F6-38 (antibody, V domains shown)
VH: QVQLEESGGGVVQPGRSLTLSCAASGFTLKNYAIHWVRQAPGKGLEWVAVTAYDGFTSYYADSVKSRITISRDNSKNTAYLHLNNVRDDDAAFYYCARGGEGAFSWLGYLQYMDVWGRGTTVAVSS
VL: QSTLTQPASASGSPGQSITISCTGTSNDIGSYTYVSWYQHHPGKAPKLMIYDVNERPSGISHRFSGSKSGNTASLTISGLQPEDEADYYCNSYTINNTLKFGGGTRLTVL
B6: F6-70 (antibody, V domains shown)
VH: QVQLVESGGGVVQPGRSLRLSCAASGFTFKNFAMHWVRQAPGKGLEWVAAVSYDGTSKYQADSVKGRFTISRDNSKNTLYLQMNSLRAEDTAVYYCARVESSGSGHYSYLGYFYCMDVWGKGTTVTVSS
VL: QSALTQPASVSASPGQSITISCTGTRNDVGGYEYVSWYQQHPDKAPKLMIFDVSNRPSGVSNRFSGSKSGNTASLTISGLQAEDEADYYCSSYTINNTLVFGGGTKVTVL
B7: F6-133 (antibody, V domains shown)
VH: EVQVVESGGGLVQPGGSLRLSCAASSFSVTGSYMTWVRQAPGKGLESVSLIYSTGSTYYADSVKGRFVISRDDSKNILFLQMNNLRVEDTGVYFCARLGPAGGSWSWEFYGLDVWGQGTTVTVFS
VL: CVQMTQSPSFLSASVGDRVTISCRASQGTTSYLAWYQQKPGKAPKLLIYGVSTLQTGVPSRFSGSGSGTDFTLTISNLQPEDFATYYCQQVNIFPYTFGPGTKVEIK
B8: F6-215 (antibody, V domains shown)
VH: QEQSVQSGPEVKKPGASVKVSCRASEFTFSTDFIHWVRQAPGQGLEWMGRITPSDGTTTYAPKFQGRVAVTRDPSTKNVYIQLTRLKSEDTAVYYCVAYDRATTSAGAGATDIWGQGTLVTVSS
VL: DIVMTQSPLSLPVTPGEPASISCRSSQSLLHGDGYNYLDWYLQRPGRSPQLLIYLGSHRASGVPDRFSGSGSGTDFTLRISRVEAEDVGIYYCMQGLQTPFTFGPGTKVDIK
B9: F6-213 (antibody, V domains shown)
VH: QEQLVQSGAEVKRPGTSVKVSCKASGYAFTDYSIHWVRQAPGVGLEWMGKIYPGDGHALYAQNFQGRVTLTRDTSTASVYMELRSLRSQDTAVYYCVAYERATTLAGAGASDIWGQGTMVTVSS
VL: B8 VL with H31Q, G32S, L38M, R44K, E84K, G96S, T99S
B10: F6-207 (antibody, V domains shown)
VH: QITLKESGPTLLKPTQTLTLTCTFSGFSLTTTGVAVGWVRQPPGKALEWLALIYWDDDKRYSPSLKSRVTITKDTSKNQVLLAMTDMDPVDTATYYCAHFDYGDPEVVALFEYSYYMDVWGKGITVTVSS
VL: QSVLTQPPSVSGTPGQRVTISCSGSSSNIGSNYVYWYQHLPGTAPKLLIYTNNRRPSGVPDRFSGSKSGTSASLAVSGLRSEDEADYFCAVWDDSVGGHWVFGGGTKLTVL
B11: F6-141 (antibody, V domains shown)
VH: QVQLAQSGAEVRRPGTSVKVSCRSSAYDFIDDSIHWVRQAPGQGLEWMGRIDPSGDTTTYAPQFQVRITLTRDTSTSTASMELNRLTSQDTAMYYCVAYERATTLAGVGASDVWGQGTWVTVSS
VL: DIVMTQSPLSLSVTPGEPASISCRSSQSLLYRDGYNYLDWYLQKPGQSPQLLLYFASYRASGVPDRFSGSGSGTDFTLTITRVEPEDVGIYYCMQSLQTPFTFGPGTKLDFK
B12: F6-61 (antibody, V domains shown)
VH: QVTLRQSGPALVKPTQTLTLTCTFSGFSLSTRGMCVNWIRQPPGKALEWLARIDWDDDKYYTTSLKTRLTISKDTAKNHVVLSMTNMDPVDTATYYCARIRCYDYVWGDDEVFDIWGQGTMVSVSS
VL: QSVLTQPPSASGTPGQSVTISCSGSTSNIGSNNVNWYQQLPGAAPKLVIHTNDQRPSRVPDRFSGSTSGTSASLAISGLQSEDEADYYCAAWDDSLNGLLFGGGTKLTVL
B13: F6-208 (antibody, V domains shown)
VH: QVQLEESGGGVVQPGTSLRLSCSSSGVTRNTYAVHWVRQVPGKGLEWLAATSYDGTSKYYPENGHGRVSISKEYSTNMVYLEIYNLRPEDTAVYFCAKGPQGIYSYIGYFYYMDVWGKGTTVTVSS
VL: QSALTQPASVSGSPGQSITLSCTGSRDDVGDYDYVSWYQHHPGKAPRLIIYDVTSRPSGVSPRFSGSKSGNTASLTISGLQADDEADYYCNSYTSSNSVVFGGGTKVTVL
B14: F6-153 (antibody, V domains shown)
VH: QVQLQQWGAGLLRPSETLSLTCAVSGVSLSGDYLTWIRQTPGKGLEWIGEINHSGSTNYNPSLKSRVTISVETSKNHFSLKMRSVTAADSALYYCARGWEYCHGTTCYSKAFDIWGQGTLVTVSS
VL: DIQMTQSPSSLSASVGDRVTITCQASQDISNYLIWYQQKPGRAPKLLIFDASKLEKGVPPRFSGSGSGTYFTFTISSLQPEDFATYYCQQFHNLPVTFGGGTKLETK
B15: F6-115 (antibody, V domains shown)
VH: QLQLHQRGAGLLKPSETLSLTCDVYGGSVSDDEWTWIRQSPGKGLEWIGQIDRTGSSNYNPSLRSRVTISPDTSNNQFSMSLTSVTAADTALYFCARGGLVVTDVGRGWDAFDVWGQGTMVTVSS
VL: DIQMTQSPSSVSASVGDRITITCRASQHINNWLAWYQQKPGEAPKLLIYAASTLQRGVPSRFSGSGSGTRFTLTITSLQPEDFASYFCQQGDSFPLTFGGGTKVEIK
B16: F6-227 (antibody, V domains shown)
VH: QVQLQQSGPGLVKPSETLSLACSVSGGSMSDFYWSWIRQSPGTGLEWIGYVHHSGKVNYNPSLKARVTMSLDTSKYLLSLNLASMTAADSAVYYCAATSAFVDSSSYSPPYFDFWGQGTLITVSS
VL: DIQLTQSPSSLSASVGDRVTITCQASHDITNYLNWYQQTPGKAPRLLIYVATNLETGVPSRFSGSGSGTHFTLTISSLQPEDSATYYCQQYDNLPITFGGGTRVEIR
B17: F6-210 (antibody, V domains shown)
VH: QERLAQSGTEVKKPGASVKVSCRALGYTFSDYSIHWVRQAPRQGLEWMGKINTSGGTTTYAQKFQARVTLTSDTSTSTASMELSSLKIEDTAVYYCVAYERATTLAGAGASDIWGQGTLVTVSS
VL: DIVMTQSPLSLPVTPGEPASISCRSSQSLLHSDGYNYLDWYLQKPGQSPHLLIYLGSNRASGVPDRFSGSGSGTDFTLKITRVEPEDVGVYYCMQSLQTPFTFGPGTKVDVK
B18: F6-132 (antibody, V domains shown)
VH: QEQSVQSGAEVKKPGASVKVSCRASEFTFSTDFIHWVRQAPGQGLEWMGRITPSDGTTTYAQKFQGRVTMTRDPSTNTVYIELRRLKSEDTAVYYCVAYDRVTTSAGTGASDIWGQGTMVTVSS
VL: B8 VL with R44K
B19: F6-172 (antibody, V domains shown)
VH: EEQLVESGGGLVQPGGSLKLSCAASGFILSDSTVHWVRQASGRGLEWVGRIANGYATSYAASVKGRFTISTDDSGNTAYLEMNSLKTEDTAVYYCTSRSVVVTDVGAGRDDYWGQGTLVTVSS
VL: DIVMTQSPLSLPVTPGEPASISCRSSQSLLHRNGYNYLDWYLQKPGQSPQLLIWLGSNRASGVPDRFSGSGSGTDFTLTISRVEAEDVGVYYCMQDLQTPPTFGGGTKVEIM
B20: F6-124 (antibody, V domains shown)
VH: QVQLVQSGTEVKKPGASVKISCKASGYTFTGNAINWVRQAPGQGLEWLGWISVNNGNTKYVQKFQGRVTMTTDTSTSTAYMELRSLGSDDTAVYYCAREVVNYGSGSLNFDSWGQGTLVTVSS
VL: SYELTQPPSVSVSPGQTVSISCSGDKLGNDYVSWYQQKPGQSPVLVIYEDSKRPSGIPERFSGSNSGNTATLTISGTQAMDESDYYCQAWDGSTVIFGGGTKLTVL

biological target: RSV A2 pre-F (RSV A2); assay: ELISA

Row | Binder | EC50 [µg/mL]
1 | B1 | 0.00987
2 | B2 | 0.0161
3 | B3 | 0.0169
4 | B4 | 0.00998
5 | B5 | 0.00712

biological target: RSV A2 pre-F (RSV A2); assay: BLI

Row | Binder | Kd [nM]
6 | B6 | 2.11
7 | B7 | 0.0669
8 | B8 | 0.815
9 | B9 | 1.29
10 | B10 | 0.291
11 | B11 | < 0.001
12 | B12 | 3.25
13 | B13 | 0.0533
14 | B14 | < 0.001
15 | B15 | < 0.001
16 | B16 | 0.169
17 | B17 | 0.106
18 | B18 | < 0.001
19 | B19 | < 0.001
20 | B20 | < 0.001

biological target: RSV A2 pre-F (RSV A2); assay: ELISA; remark: another data set of the same source

Row | Binder | EC50 [µg/mL]
21 | B6 | 0.0585
22 | B7 | 0.0494
23 | B8 | 0.0289
24 | B9 | 0.0298
25 | B10 | 0.0354
26 | B11 | 0.0166
27 | B12 | 0.0613
28 | B13 | 0.0198
29 | B14 | 0.018
30 | B15 | 0.0117
31 | B16 | 0.0226
32 | B17 | 0.0281
33 | B18 | 0.0167
34 | B19 | 0.0183
35 | B20 | 0.0147

biological target: RSV A2 pre-F (RSV A2); assay: BLI; remark: another data set of the same source

Row | Binder | Kd [nM]
36 | B1 | 0.671
37 | B2 | 0.783
38 | B3 | 0.86
39 | B4 | 0.96
40 | B5 | 1.38
